Source: patent US20240018252A1 (Pfizer, published 2024)

B1: L3.PY/H2.DY (antibody, V domains shown)
VH: EVQLLESGGGLVQPGGSLRLSCAASGFTFGSYAMTWVRQAPGKGLEWVSAIDYSGGNTFYADSVKGRFTISRDNSKNTLYLQMNSLRAEDTAVYYCARVSPIASGMDYWGQGTLVTVSS
VL: EIVLTQSPGTLSLSPGERATLSCRASQSVSSSYLAWYQQKPGQAPRLLIYGASSRATGIPDRFSGSGSGTDFTLTISRLEPEDFAVYYCQHYPYPPSFTFGQGTKVEIK
notes: IgG in the assay
B2: L3.PY/H3.TAQ (antibody, V domains shown)
VH: EVQLLESGGGLVQPGGSLRLSCAASGFTFGSYAMTWVRQAPGKGLEWVSAISGSGGNTFYADSVKGRFTISRDNSKNTLYLQMNSLRAEDTAVYYCTRVSPIAAQMDYWGQGTLVTVSS
VL: EIVLTQSPGTLSLSPGERATLSCRASQSVSSSYLAWYQQKPGQAPRLLIYGASSRATGIPDRFSGSGSGTDFTLTISRLEPEDFAVYYCQHYPYPPSFTFGQGTKVEIK
notes: IgG in the assay; also called P6E01 L3PY/H3TAQ
B3: L3.PY/H3.YA (antibody, V domains shown)
VH: EVQLLESGGGLVQPGGSLRLSCAASGFTFGSYAMTWVRQAPGKGLEWVSAISGSGGNTFYADSVKGRFTISRDNSKNTLYLQMNSLRAEDTAVYYCARVSPIYAGMDYWGQGTLVTVSS
VL: EIVLTQSPGTLSLSPGERATLSCRASQSVSSSYLAWYQQKPGQAPRLLIYGASSRATGIPDRFSGSGSGTDFTLTISRLEPEDFAVYYCQHYPYPPSFTFGQGTKVEIK
notes: IgG in the assay
B4: L3.PY/L3.KY/H2.LT (antibody, V domains shown)
VH: EVQLLESGGGLVQPGGSLRLSCAASGFTFGSYAMTWVRQAPGKGLEWVSAISLTGGNTFYADSVKGRFTISRDNSKNTLYLQMNSLRAEDTAVYYCARVSPIASGMDYWGQGTLVTVSS
VL: EIVLTQSPGTLSLSPGERATLSCRASQSVSSSYLAWYQQKPGQAPRLLIYGASSRATGIPDRFSGSGSGTDFTLTISRLEPEDFAVYYCKYYPYPPSFTFGQGTKVEIK
notes: IgG in the assay
B5: L3.PY/L3.KY/H2.DY (antibody, V domains shown)
VH: EVQLLESGGGLVQPGGSLRLSCAASGFTFGSYAMTWVRQAPGKGLEWVSAIDYSGGNTFYADSVKGRFTISRDNSKNTLYLQMNSLRAEDTAVYYCARVSPIASGMDYWGQGTLVTVSS
VL: EIVLTQSPGTLSLSPGERATLSCRASQSVSSSYLAWYQQKPGQAPRLLIYGASSRATGIPDRFSGSGSGTDFTLTISRLEPEDFAVYYCKYYPYPPSFTFGQGTKVEIK
notes: IgG in the assay
B6: L3.PY/H2.YQ (antibody, V domains shown)
VH: EVQLLESGGGLVQPGGSLRLSCAASGFTFGSYAMTWVRQAPGKGLEWVSAISYQGGNTFYADSVKGRFTISRDNSKNTLYLQMNSLRAEDTAVYYCARVSPIASGMDYWGQGTLVTVSS
VL: EIVLTQSPGTLSLSPGERATLSCRASQSVSSSYLAWYQQKPGQAPRLLIYGASSRATGIPDRFSGSGSGTDFTLTISRLEPEDFAVYYCQHYPYPPSFTFGQGTKVEIK
notes: IgG in the assay
B7: L3.PY/L3.KY/H3.TAQ (antibody, V domains shown)
VH: EVQLLESGGGLVQPGGSLRLSCAASGFTFGSYAMTWVRQAPGKGLEWVSAISGSGGNTFYADSVKGRFTISRDNSKNTLYLQMNSLRAEDTAVYYCTRVSPIAAQMDYWGQGTLVTVSS
VL: EIVLTQSPGTLSLSPGERATLSCRASQSVSSSYLAWYQQKPGQAPRLLIYGASSRATGIPDRFSGSGSGTDFTLTISRLEPEDFAVYYCKYYPYPPSFTFGQGTKVEIK
notes: IgG in the assay
B8: L3.PY/L3.KF/H3.YA (antibody, V domains shown)
VH: EVQLLESGGGLVQPGGSLRLSCAASGFTFGSYAMTWVRQAPGKGLEWVSAISGSGGNTFYADSVKGRFTISRDNSKNTLYLQMNSLRAEDTAVYYCARVSPIYAGMDYWGQGTLVTVSS
VL: EIVLTQSPGTLSLSPGERATLSCRASQSVSSSYLAWYQQKPGQAPRLLIYGASSRATGIPDRFSGSGSGTDFTLTISRLEPEDFAVYYCKFYPYPPSFTFGQGTKVEIK
notes: IgG in the assay
B9: L3.PY/H2.LT (antibody, V domains shown)
VH: EVQLLESGGGLVQPGGSLRLSCAASGFTFGSYAMTWVRQAPGKGLEWVSAISLTGGNTFYADSVKGRFTISRDNSKNTLYLQMNSLRAEDTAVYYCARVSPIASGMDYWGQGTLVTVSS
VL: EIVLTQSPGTLSLSPGERATLSCRASQSVSSSYLAWYQQKPGQAPRLLIYGASSRATGIPDRFSGSGSGTDFTLTISRLEPEDFAVYYCQHYPYPPSFTFGQGTKVEIK
notes: IgG in the assay
B10: L3.PY/L3.KY/H2.QR (antibody, V domains shown)
VH: EVQLLESGGGLVQPGGSLRLSCAASGFTFGSYAMTWVRQAPGKGLEWVSAISGSGGNTFYADQRKGRFTISRDNSKNTLYLQMNSLRAEDTAVYYCARVSPIASGMDYWGQGTLVTVSS
VL: EIVLTQSPGTLSLSPGERATLSCRASQSVSSSYLAWYQQKPGQAPRLLIYGASSRATGIPDRFSGSGSGTDFTLTISRLEPEDFAVYYCKYYPYPPSFTFGQGTKVEIK
notes: IgG in the assay
B11: L3.PY/L3.KY/H2.YQ (antibody, V domains shown)
VH: EVQLLESGGGLVQPGGSLRLSCAASGFTFGSYAMTWVRQAPGKGLEWVSAISYQGGNTFYADSVKGRFTISRDNSKNTLYLQMNSLRAEDTAVYYCARVSPIASGMDYWGQGTLVTVSS
VL: EIVLTQSPGTLSLSPGERATLSCRASQSVSSSYLAWYQQKPGQAPRLLIYGASSRATGIPDRFSGSGSGTDFTLTISRLEPEDFAVYYCKYYPYPPSFTFGQGTKVEIK
notes: IgG in the assay
B12: L3.PY/L3.KY/H2.HA (antibody, V domains shown)
VH: EVQLLESGGGLVQPGGSLRLSCAASGFTFGSYAMTWVRQAPGKGLEWVSAISHAGGNTFYADSVKGRFTISRDNSKNTLYLQMNSLRAEDTAVYYCARVSPIASGMDYWGQGTLVTVSS
VL: EIVLTQSPGTLSLSPGERATLSCRASQSVSSSYLAWYQQKPGQAPRLLIYGASSRATGIPDRFSGSGSGTDFTLTISRLEPEDFAVYYCKYYPYPPSFTFGQGTKVEIK
notes: IgG in the assay
B13: L3.PY/L3.KY/H3.YA (antibody, V domains shown)
VH: EVQLLESGGGLVQPGGSLRLSCAASGFTFGSYAMTWVRQAPGKGLEWVSAISGSGGNTFYADSVKGRFTISRDNSKNTLYLQMNSLRAEDTAVYYCARVSPIYAGMDYWGQGTLVTVSS
VL: EIVLTQSPGTLSLSPGERATLSCRASQSVSSSYLAWYQQKPGQAPRLLIYGASSRATGIPDRFSGSGSGTDFTLTISRLEPEDFAVYYCKYYPYPPSFTFGQGTKVEIK
notes: IgG in the assay
B14: L3.PY/H2.QL (antibody, V domains shown)
VH: EVQLLESGGGLVQPGGSLRLSCAASGFTFGSYAMTWVRQAPGKGLEWVSAISGSGGNTFYADQLKGRFTISRDNSKNTLYLQMNSLRAEDTAVYYCARVSPIASGMDYWGQGTLVTVSS
VL: EIVLTQSPGTLSLSPGERATLSCRASQSVSSSYLAWYQQKPGQAPRLLIYGASSRATGIPDRFSGSGSGTDFTLTISRLEPEDFAVYYCQHYPYPPSFTFGQGTKVEIK
notes: IgG in the assay
B15: L3.PY/L3.KY/H2.QL (antibody, V domains shown)
VH: EVQLLESGGGLVQPGGSLRLSCAASGFTFGSYAMTWVRQAPGKGLEWVSAISGSGGNTFYADQLKGRFTISRDNSKNTLYLQMNSLRAEDTAVYYCARVSPIASGMDYWGQGTLVTVSS
VL: EIVLTQSPGTLSLSPGERATLSCRASQSVSSSYLAWYQQKPGQAPRLLIYGASSRATGIPDRFSGSGSGTDFTLTISRLEPEDFAVYYCKYYPYPPSFTFGQGTKVEIK
notes: IgG in the assay
B16: L3.PY/H3.AE (antibody, V domains shown)
VH: EVQLLESGGGLVQPGGSLRLSCAASGFTFGSYAMTWVRQAPGKGLEWVSAISGSGGNTFYADSVKGRFTISRDNSKNTLYLQMNSLRAEDTAVYYCARVSPIAAEMDYWGQGTLVTVSS
VL: EIVLTQSPGTLSLSPGERATLSCRASQSVSSSYLAWYQQKPGQAPRLLIYGASSRATGIPDRFSGSGSGTDFTLTISRLEPEDFAVYYCQHYPYPPSFTFGQGTKVEIK
notes: IgG in the assay
B17: L3.PY/H2.HA (antibody, V domains shown)
VH: EVQLLESGGGLVQPGGSLRLSCAASGFTFGSYAMTWVRQAPGKGLEWVSAISHAGGNTFYADSVKGRFTISRDNSKNTLYLQMNSLRAEDTAVYYCARVSPIASGMDYWGQGTLVTVSS
VL: EIVLTQSPGTLSLSPGERATLSCRASQSVSSSYLAWYQQKPGQAPRLLIYGASSRATGIPDRFSGSGSGTDFTLTISRLEPEDFAVYYCQHYPYPPSFTFGQGTKVEIK
notes: IgG in the assay
B18: L3.PY/L3.KF/H3.TAQ (antibody, V domains shown)
VH: EVQLLESGGGLVQPGGSLRLSCAASGFTFGSYAMTWVRQAPGKGLEWVSAISGSGGNTFYADSVKGRFTISRDNSKNTLYLQMNSLRAEDTAVYYCTRVSPIAAQMDYWGQGTLVTVSS
VL: EIVLTQSPGTLSLSPGERATLSCRASQSVSSSYLAWYQQKPGQAPRLLIYGASSRATGIPDRFSGSGSGTDFTLTISRLEPEDFAVYYCKFYPYPPSFTFGQGTKVEIK
notes: IgG in the assay
B19: L3.PY/L1.AH/H2.DY (antibody, V domains shown)
VH: EVQLLESGGGLVQPGGSLRLSCAASGFTFGSYAMTWVRQAPGKGLEWVSAIDYSGGNTFYADSVKGRFTISRDNSKNTLYLQMNSLRAEDTAVYYCARVSPIASGMDYWGQGTLVTVSS
VL: EIVLTQSPGTLSLSPGERATLSCRASQSVSAHYLAWYQQKPGQAPRLLIYGASSRATGIPDRFSGSGSGTDFTLTISRLEPEDFAVYYCQHYPYPPSFTFGQGTKVEIK
notes: IgG in the assay
B20: L3.PY/H2.QR (antibody, V domains shown)
VH: EVQLLESGGGLVQPGGSLRLSCAASGFTFGSYAMTWVRQAPGKGLEWVSAISGSGGNTFYADQRKGRFTISRDNSKNTLYLQMNSLRAEDTAVYYCARVSPIASGMDYWGQGTLVTVSS
VL: EIVLTQSPGTLSLSPGERATLSCRASQSVSSSYLAWYQQKPGQAPRLLIYGASSRATGIPDRFSGSGSGTDFTLTISRLEPEDFAVYYCQHYPYPPSFTFGQGTKVEIK
notes: IgG in the assay
B21: L3.PY/H3.AQ (antibody, V domains shown)
VH: EVQLLESGGGLVQPGGSLRLSCAASGFTFGSYAMTWVRQAPGKGLEWVSAISGSGGNTFYADSVKGRFTISRDNSKNTLYLQMNSLRAEDTAVYYCARVSPIAAQMDYWGQGTLVTVSS
VL: EIVLTQSPGTLSLSPGERATLSCRASQSVSSSYLAWYQQKPGQAPRLLIYGASSRATGIPDRFSGSGSGTDFTLTISRLEPEDFAVYYCQHYPYPPSFTFGQGTKVEIK
notes: IgG in the assay

Tests used:
human BCMA = molecular target: T1, human BCMA (human, UniProt Q02223 1-54); assay: SPR, immobilised IgG, 37° C
T1 construct: also called huBCMA; hBCMA
T1 sequence: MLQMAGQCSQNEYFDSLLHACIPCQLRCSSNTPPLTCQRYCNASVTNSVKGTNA

cyBCMA = molecular target: T2, cyBCMA (cynomolgus, UniProt A0A2K5UD97 1-53); assay: SPR, immobilised IgG, 37° C
T2 construct: Soluble analyte in SPR; construct not described; also called cyno BCMA
T2 sequence (A0A2K5UD97 entry or part of it): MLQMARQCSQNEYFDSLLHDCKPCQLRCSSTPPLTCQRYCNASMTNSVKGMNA

Binder	T½ (human BCMA) [min]	T½ (cyBCMA) [min]
B1	8.37	1.87
B2	10.1	2.64
B3	9.82	2.14
B4	12.8	
B5	18	
B6	7.41	1.86
B7	17.8	
B8	7.85	
B9	8.95	1.53
B10	11.7	
B11	7.02	
B12	7.1	
B13	12.7	
B14	5.31	0.91
B15	5.56	
B16	8.32	2.29
B17	7.89	1.53
B18	7.12	
B19	7.62	2.56
B20	9.75	1.76
B21	6.69	2.14
